# Reference: patent US20150337012A1 (HOYA, published 2015)
# Where no end group is shown, it is not given here. The star is where a group is joined. FITC = O=C1OC2(c3ccc(O)cc3Oc3cc(O)ccc32)c2ccc(NC(=S)*)cc21; Ahx = NCCCCCC(=O)O
# B1: I-1010 phage (peptide displayed phage from the D12 library) (peptide, not shown: large carriers)
# peptide: WHLSDLWQNAWH
# notes: tested as phage particles, 1x10^10 PFU per well
# B2: I-1012 phage (peptide displayed phage from the D12 library) (peptide, not shown: large carriers)
# peptide: FHDWLPEVSPPD
# notes: tested as phage particles
# B3: I-1015 phage (peptide displayed phage from the D12 library) (peptide, not shown: large carriers)
# peptide: LHQSEWMYVDIH
# notes: tested as phage particles
# B4: Pep055-F (FITC-labeled Pep055) (peptide)
# peptide: {FITC-Ahx}-WHLSDLWQNAWH
# B5: I-1010 phage in which the 1st W was substituted with F and the 8th Q was substituted with A (peptide, not shown: large carriers)
# peptide: FHLSDLWANAWH
# notes: Phage with two substituted amino acids; also called W1F/Q8A
# B6: I-1010 phage in which the 3rd L was substituted with M and the 8th Q was substituted with A (peptide, not shown: large carriers)
# peptide: WHMSDLWANAWH
# notes: Phage with two substituted amino acids; also called L3M/Q8A
# B7: I-1010 amino acid substituted phage, 3rd L substituted with M (peptide, not shown: large carriers)
# peptide: WHMSDLWQNAWH
# notes: also called L3M
# B8: I-1010 amino acid substituted phage, 7th W substituted with F (peptide, not shown: large carriers)
# peptide: WHLSDLFQNAWH
# notes: also called W7F
# B9: I-1010 amino acid substituted phage, 1st W substituted with F (peptide, not shown: large carriers)
# peptide: FHLSDLWQNAWH
# notes: also called W1F
# B10: I-1010 amino acid substituted phage, 3rd L substituted with V (peptide, not shown: large carriers)
# peptide: WHVSDLWQNAWH
# notes: also called L3V
# B11: I-1010 amino acid substituted phage, 3rd L substituted with I (peptide, not shown: large carriers)
# peptide: WHISDLWQNAWH
# notes: also called L3I
# B12: I-1010 amino acid substituted phage, 7th W substituted with Y (peptide, not shown: large carriers)
# peptide: WHLSDLYQNAWH
# notes: also called W7Y
# Target: T1, recombinant human EGFR/Fc chimera (rhEGFR, R&D Systems) (human, UniProt P00533 25-645)
# T1 construct: Bought reagent; Coated on the plate at 1 ug/well; also called genetically modified EGFR protein; not shown: human IgG1 Fc moiety of the chimera
# Test: phage binding to plate-coated protein, titer ratio
# Experimental: After removal of the blocking buffer, the wells were washed with 200 μl of 0.5% TBST being the washing solution three times and thereto was finally added 100 μl of 0.5% TBST. […] In the reaction, the mixture was gently shaken at room temperature for 1 hour. The reaction solution was removed and the wells were washed with 200 μl of 0.5% TBST ten times, 100 μl of 0.2 M glycine-HCl (pH 2.2) was added to the wells and stirred by pipetting, thereafter gently shaking at room temperature for 10 minutes. The eluate was collected to a microtube from the wells and added with 15 μl of 1 M Tris-HCl (pH 9.1) to be neutralized and a target binding phage solution was thus obtained. The binding ability of the collected phage was examined by a measurement of a titer.
# A rhEGFR that is a target protein, a recombinant human ErbB2(rhErbB2, PROSPEC) as a HER2 protein belonging to the ErbB family same as an EGFR, are combinant human IGF-1R, CF(rhIGF-1R, R&D Systems) as an IGF-1R protein that is one of extracellular proteins were added to a 96-well microplate to be 1 μg/well, and stood still at 4° C. overnight to be thus formed into a solid phase. A protein solution was removed, 300 μl of a blocking buffer was added and the mixture was incubated at 37° C. for 1 hour to thus block the wells. After removal of the blocking buffer, the wells were washed three times with 200 μl of 0.5% TBST washing solution, and finally 100 μl of 0.5% TBST was added thereto. […] In the reaction, the mixture was gently shaken at room temperature for 1 hour. The reaction solution was removed, the wells were washed with 200 μl of 0.5% TEST ten times, and 100 μl of 0.2 M glycine-HCl (pH 2.2) was then added to the wells and stirred by pipetting, thereafter gently shaking at room temperature for 10 minutes. The eluate was collected to a microtube from the wells and added with 15 μl of 1 M Tris-HCl (pH 9.1) to be neutralized and a target binding phage solution was thus obtained.
Binder,fold binding to rhEGFR over binding to BSA [times],fold binding to rhEGFR over binding to rhErbB2 [times],fold binding to rhEGFR over binding to rhIGF-1R [times],fold binding to rhEGFR over binding to rhIgG1 [times]
B1,3810,1760,2830,1660
B2,3100,1580,4340,3420
B3,14000,4740,7710,19000

# Target: T2, EGFR expressed by A-431 cells (human, UniProt P00533 25-1210)
# T2 construct: whole, on cells; also called EGFR expressed by cells
# Test: confocal fluorescence microscopy of A-431 cells with 100 µM FITC-labeled peptide
# Experimental: A-431 cells were inoculated in a glass bottom dish to be 20×10⁴ cells/dish and MCF7 cells were inoculated in a glass bottom dish to be 75×10⁴ cells/dish, and cultured at 37° C. in the condition of CO₂ for 24 hours. After culturing each kind of the cells for a specified time, EGF was added to have a concentration of 100 ng/mL and the mixture was cultured for 6 days. Thereafter, the culture solution in the dish was removed and washed with 1000 μL of a growth medium at 37° C. ten times. […] A staining fluid was removed and washed with 1 mL of a growth medium at 37° C. three times and thereto was finally added 1 mL of the medium. For observation, fluorescent observation was carried out by irradiating an exciting light laser with a wavelength of 488 nm using a confocal microscope (Leica SP2).
row,Binder,binding result
1,B4,binds

# Target: T1, recombinant human EGFR/Fc chimera …
# Test: substituted phage binding to plate-coated rhEGFR, titer ratio
# Experimental: A rhEGFR that is a target protein was added to a 96-well microplate to be 1 μg/well, and stood still at 4° C. overnight to be thus formed into a solid phase. A protein solution was removed, 300 μl of a blocking buffer (5 mg/mL BSA/TBS) was added and the mixture was incubated at 37° C. for 1 hour to thus block the wells. After removal of the blocking buffer, the wells were washed with 200 μl of 0.5% TBST (0.5% Tween20/TBS) being the washing solution three times and thereto was finally added 100 μl of 0.5% TEST. An amplification phage solution was added to the above described wells to have 1×10¹⁰ PFU and mixed by pipetting. In the reaction, the mixture was gently shaken at room temperature for 1 hour. The reaction solution was removed and the wells were washed with 200 μl of 0.5% TBST ten times, 100 μl of 0.2 M glycine-HCl (pH 2.2) was then added to the wells and stirred by pipetting, thereafter gently shaking at room temperature for 10 minutes. The eluate was collected to a microtube from the wells and added with 15 μl of 1 M Tris-HCl (pH 9.1) to be neutralized and a target binding phage solution was thus obtained. The binding ability of the collected phage was examined by a measurement of a titer.
row,Binder,binding result
1,B5,binds
2,B6,binds
3,B7,binds
4,B8,binds
5,B9,binds
6,B10,binds
7,B11,binds
8,B12,binds

# Target: T2, EGFR expressed by A-431 cells
# Test: phage binding to A-431 cells at 4 °C, titer ratio corrected for the number of collected cells
# Experimental: A-431 cells were inoculated in a 6-well culture plate at 40×10⁴ cells/well and cultured at 37° C. in the condition of 5% CO₂ overnight. The plate was incubated at 4° C. for 30 minutes and a medium in each well was removed, and treated by washing with 1 mL of 1% BSA/PBS twice. […] After the reaction, the reaction solution was removed and washed with 1 mL of 1% BSA/PBS ten times to remove non-binding phages. Thereto was added 100 μl of a 0.05% trypsin/0.53 mM EDTA solution and the reaction solution was incubated at 37° C. for about 10 minutes and added with 900 μl of a growth medium to prepare a collected phage solution. A titer of each collected phage solution was measured.
row,Binder,fold titer ratio over that of the M13KE phage [times]
1,B1,45
